Here are results for six molecules from patent publication US7943569B2, “Composition and method for providing localized delivery of a therapeutic agent” (The Board of Trustees of the University of Illinois, priority 2005, dated 2011).

Like-named read-outs stand apart in the source and are kept apart here. Primed or numbered codes have the meaning given here. Ends that are not written are not given here. * marks the point of attachment. fluorescein = Lys* = fluorescein containing lysine; fluorescein″ = fluorescein-labelled lysine (Lys*)

The subject of assay [1] is malignant glioma cell line (U-87MG). Nature of the assay: Cell viability of U-87MG glioma cells, modified MTT assay, 24 hours. It is filed as cell-based. To be noted: U-87MG cell viability (FIG. 1). How it is done:
As a model for cancer, the malignant glioma cell line (U-87MG, ATCC #HTB-14) was grown and maintained in Eagles Minimum Essential Media with 10% fetal bovine serum, 1% penicillin/streptomycin, sodium pyruvate (110 mg/L), L-Glutamine (292 mg/L), and nonessential amino acids at 37° C. in 5% CO2. One day prior to the test, cells were plated at 50,000 cells/mL in supplemented media on 96-well plates. Peptides at different concentrations were incubated with cells for 24 hours. Cell viability, with respect to the untreated control, was determined using a modified MTT assay (CELL TITER […] 96® Aqueous One Solution Cell Proliferation Assay; PROMEGA, Madison, Wis.) (Barltrop, et al. (1991) Bioorg. Med. Chem. Lett. 1:661).
To synthesize Pt-complexes, peptides were dissolved in water and equimolar amounts of potassium tetrachloroplatinate (K2PtCl4) (Acros Organics, Morris Plains, N.J.) were added to each peptide solution. The solutions were stirred for 20 hours and lyophilized.
Background: Tetrazolium assays rely on reduction of a dye to a coloured formazan, in cell work by metabolically active cells.

Assay [2] concerns the target T1, MMP-2 (Homo sapiens, UniProt P08253).
T1 construct: purchased CALBIOCHEM (San Diego, Calif.)
T1 sequence (P08253 110-660): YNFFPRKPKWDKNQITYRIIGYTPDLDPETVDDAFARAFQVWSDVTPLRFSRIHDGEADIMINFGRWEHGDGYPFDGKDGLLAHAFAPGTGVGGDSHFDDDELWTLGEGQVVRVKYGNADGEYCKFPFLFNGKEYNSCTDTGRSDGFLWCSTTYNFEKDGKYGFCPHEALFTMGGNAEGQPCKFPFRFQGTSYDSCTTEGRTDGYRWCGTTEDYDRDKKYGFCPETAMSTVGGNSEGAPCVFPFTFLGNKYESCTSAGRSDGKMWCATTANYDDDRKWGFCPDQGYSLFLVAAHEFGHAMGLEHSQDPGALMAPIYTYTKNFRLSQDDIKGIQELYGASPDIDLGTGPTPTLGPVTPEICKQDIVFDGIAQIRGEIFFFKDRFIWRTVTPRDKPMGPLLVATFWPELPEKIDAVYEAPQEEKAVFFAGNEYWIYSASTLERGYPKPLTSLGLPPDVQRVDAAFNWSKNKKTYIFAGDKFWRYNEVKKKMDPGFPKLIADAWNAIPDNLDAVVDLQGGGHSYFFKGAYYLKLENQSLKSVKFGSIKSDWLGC
The note with it: MMP-2, Turk et al. (2001); cited from earlier work.

The target in assay [3] is T1, MMP-2. Nature of the assay: Peptide cleavage by activated MMP-2, HPLC. The class given is biochemical. To be noted: for Km / Vmax / kcat: MMP-2 10 nM, protease buffer pH 7.4. The protocol: (§1) Prospective MMP substrate peptides, Lys*-Pro-Ala-Gly-Leu-Leu-Gly-Cys (SEQ ID NO:2), Lys*-Ala-Gly-Leu-Leu-Cys (SEQ ID NO:32), and Lys*-Gly-Leu-Cys (SEQ ID NO:33), were dissolved in a protease buffer containing Tris-HCl (50 mM), NaCl (0.2 M), CaCl2.2H2O (10 mM), BRIJ-35 (0.05%) and ZnSO4.7H2O (50 μM) (pH=7.4). Activated MMP-2 or MMP-9 was added to the peptide solution at a final concentration of 10 nM. At predetermined time intervals, the reaction was stopped by adding EDTA solution (25 mM). Samples were analyzed using reverse phase high pressure liquid chromatography (HPLC). The HPLC system was composed of a gradient pump connected to a scanning fluorescence detector and a photodiode array detector. Peptides were separated on a ZORBAX Extend-C18 (80 Å, 3.6 μm, 4.6 mm×150 mm) column (Agilent Technologies, Palo Alto, Calif.) using a gradient of 30%-70% of 0.1% trifluoroacetic acid in acetonitrile against 0.1% trifluoroacetic acid in water over a period of 15 minutes at a flow rate of 1 mL/minute. The expected cleaved fragments, Lys*-Pro-Ala-Gly (SEQ ID NO:34), Lys*-Ala-Gly, and Lys*-Gly, were synthesized to confirm HPLC retention times. The HPLC retention time of each fragment was compared to that of the cleaved fragment and the intact peptide using the HPLC conditions described above.

Assay [4] addresses T2, MMP-9 (Homo sapiens, UniProt P14780).
T2 construct: purchased CALBIOCHEM (San Diego, Calif.)
Nature of the assay: Peptide cleavage by activated MMP-9, HPLC. The class given is biochemical. The note with it: for Km / Vmax / kcat: MMP-9 10 nM, protease buffer pH 7.4. The protocol:
as §1

T2 sequence (P14780 107-707 limits assumed): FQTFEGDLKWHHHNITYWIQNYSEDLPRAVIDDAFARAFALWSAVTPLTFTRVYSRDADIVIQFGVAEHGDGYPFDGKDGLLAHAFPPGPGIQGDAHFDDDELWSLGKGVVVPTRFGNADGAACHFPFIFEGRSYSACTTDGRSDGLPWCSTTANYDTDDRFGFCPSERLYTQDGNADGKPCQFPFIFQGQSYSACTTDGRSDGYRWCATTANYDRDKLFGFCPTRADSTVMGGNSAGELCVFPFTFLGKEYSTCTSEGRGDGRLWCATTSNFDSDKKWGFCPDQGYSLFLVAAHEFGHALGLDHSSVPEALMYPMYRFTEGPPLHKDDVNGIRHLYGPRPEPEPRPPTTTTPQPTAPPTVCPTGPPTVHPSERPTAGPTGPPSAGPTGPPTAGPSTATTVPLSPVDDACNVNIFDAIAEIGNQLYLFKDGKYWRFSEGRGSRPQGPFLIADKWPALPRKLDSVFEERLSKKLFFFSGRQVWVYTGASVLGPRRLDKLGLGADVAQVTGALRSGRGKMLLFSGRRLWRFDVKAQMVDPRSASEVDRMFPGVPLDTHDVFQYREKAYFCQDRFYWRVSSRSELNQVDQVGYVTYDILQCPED

One may read the IC50 as the point on the concentration scale where inhibition reaches its midpoint. A high value points to lower potency. In assay [1], `[Cl][Pt-2]([Cl])([Cl])[Cl].[K+].[K+]` [K2PtCl4, potassium tetrachloroplatinate] had an IC50 of 70.7 ± 15 µM.
The same measure, in the same setting: with `N.N.[Cl][Pt][Cl]` [cisplatin] the figure was 46.9 ± 15 µM.
For “GPAGLLG [parent peptide from which the three peptides were designed]”, the cleavage site entry in assay [2] is “cleaved between glycine and leucine”.
Usually Km stands for the concentration of substrate that gives half-maximal velocity. The kcat is the maximal rate divided by the concentration of active sites. “Lys*-Ala-Gly-Leu-Leu-Cys (K(fluorescein)AGLLC) [prospective MMP substrate peptide with fluorescein containing lysine (Lys*)]”: in assay [3], the Km stood at 1400 ± 400 µM, the Vmax is 6.02 ± 2.1 (M/s) × 10^−9 and the kcat was found to be 0.24 ± 0.08 s⁻¹. In assay [4], the Km came to 160 ± 100 µM, the Vmax is 0.99 ± 0.2 (M/s) × 10^−9 and the kcat was found to be 0.04 ± 0.01 s⁻¹.
Turning to “Lys*-Gly-Leu-Cys (K(fluorescein″)GLC) [prospective MMP substrate peptide with fluorescein containing lysine (Lys*)]”, in assay [3], the Km amounted to 81 ± 20 µM, the Vmax is reported as 0.88 ± 0.1 (M/s) × 10^−9 and the kcat amounted to 0.035 ± 0.006 s⁻¹. In assay [4], the Km came out at 600 ± 100 µM, the Vmax is listed as 5.3 ± 1 (M/s) × 10^−9 and the kcat was 0.21 ± 0.04 s⁻¹.
Turning to “Lys*-Pro-Ala-Gly-Leu-Leu-Gly-Cys (K(fluorescein)PAGLLGC) [prospective MMP substrate peptide with fluorescein containing lysine (Lys*)]”, the results for the Km in assay [3] and in assay [4] were 1000 ± 500 µM and 400 ± 100 µM, respectively. Besides, the Vmax in assay [3] was 270 ± 120 (M/s) × 10^−9; in assay [4] it was 240 ± 50 (M/s) × 10^−9. In addition, the results for the kcat in assay [3] and in assay [4] were 10.7 ± 4.8 s⁻¹ and 9.6 ± 2.1 s⁻¹, respectively. In addition, the cleavage site result in assay [3] (cleaved by MMP-2, HPLC comparison with synthesized fragment) is “cleaved between glycine and leucine”; in assay [4] (cleaved by MMP-9, HPLC comparison with synthesized fragment), “cleaved between glycine and leucine”.
